Results reported in publication PMC6579465, “The priming factor CAPS1 regulates dense-core vesicle acidification by interacting with rabconnectin3β/WDR7 in neuroendocrine cells” (The Journal of Biological Chemistry, 2019).

Target: T1, CAPS1 (calcium-dependent activator protein for secretion, CADPS) (rat (endogenous in rat brain), UniProt Q62717 1-1289)
T1 construct: CAPS1 (CADPS), endogenous protein of rat brain; Precipitated with a rabbit polyclonal CAPS peptide antibody and eluted with the 21-mer peptide immunogen; source: endogenous, rat brain crude synaptosomal membrane fraction, solubilized in 1% Triton X-100
Test: affinity purification with mass spectrometry; CAPS1 immunoprecipitate of detergent extract resolved by SDS-PAGE; Coomassie-stained bands seen in the CAPS1 but not the control immunoprecipitate excised, in-gel digests, LC-MS/MS
Conditions: partners not purified

T1 sequence (Q62717 whole entry): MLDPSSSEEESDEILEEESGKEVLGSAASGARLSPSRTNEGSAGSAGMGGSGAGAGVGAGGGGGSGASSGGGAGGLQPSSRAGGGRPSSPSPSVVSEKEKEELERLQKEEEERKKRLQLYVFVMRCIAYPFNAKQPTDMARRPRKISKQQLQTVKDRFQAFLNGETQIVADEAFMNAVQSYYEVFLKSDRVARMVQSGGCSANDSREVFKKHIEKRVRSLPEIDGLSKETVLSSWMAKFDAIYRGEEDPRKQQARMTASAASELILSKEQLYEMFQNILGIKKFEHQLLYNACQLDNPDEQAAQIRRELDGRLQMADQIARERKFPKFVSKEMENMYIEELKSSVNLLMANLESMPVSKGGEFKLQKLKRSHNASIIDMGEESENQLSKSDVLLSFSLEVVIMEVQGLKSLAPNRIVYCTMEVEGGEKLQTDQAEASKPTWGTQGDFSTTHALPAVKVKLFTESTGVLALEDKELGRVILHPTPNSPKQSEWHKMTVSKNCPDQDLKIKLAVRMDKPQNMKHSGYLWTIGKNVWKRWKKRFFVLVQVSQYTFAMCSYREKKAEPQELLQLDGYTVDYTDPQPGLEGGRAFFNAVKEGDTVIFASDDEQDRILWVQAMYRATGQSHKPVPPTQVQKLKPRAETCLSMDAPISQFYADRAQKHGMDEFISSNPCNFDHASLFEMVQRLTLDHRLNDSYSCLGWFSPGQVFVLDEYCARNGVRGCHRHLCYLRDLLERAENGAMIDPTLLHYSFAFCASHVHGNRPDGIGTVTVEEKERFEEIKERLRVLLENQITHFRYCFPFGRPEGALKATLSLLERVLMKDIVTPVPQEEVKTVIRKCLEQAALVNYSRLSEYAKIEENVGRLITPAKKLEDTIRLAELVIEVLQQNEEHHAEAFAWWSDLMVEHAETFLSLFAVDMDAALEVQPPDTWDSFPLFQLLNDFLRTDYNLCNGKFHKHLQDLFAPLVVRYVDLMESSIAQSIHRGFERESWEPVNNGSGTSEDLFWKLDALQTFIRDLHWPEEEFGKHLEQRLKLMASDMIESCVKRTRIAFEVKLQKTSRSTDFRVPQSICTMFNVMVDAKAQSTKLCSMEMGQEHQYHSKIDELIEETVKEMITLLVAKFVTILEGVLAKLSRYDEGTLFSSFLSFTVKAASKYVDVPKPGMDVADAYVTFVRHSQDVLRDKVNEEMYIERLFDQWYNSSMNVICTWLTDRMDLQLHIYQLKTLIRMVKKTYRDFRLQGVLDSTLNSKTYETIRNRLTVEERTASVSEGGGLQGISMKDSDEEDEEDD

stoichiometry relative to CAPS1 (bands of the immunoprecipitate): 0.167 Rbcn3 subunit : CAPS1
B1: Rabconnectin3β (Rbcn3β) / WD repeat domain 7 (WDR7) (natural protein, rat (endogenous in rat brain), UniProt Q9ERH3 1-1488, looked up)
chain: MAGNSLVLPIVLWGRKAPTHCISSILLTDDGGTIVTGCHDGQICLWDLSEELEVNPRALLFGHTAAITCLSKACASGDKQYTVSASANGEMCLWDVNDGRCIEFTKLACTHTGIQFYQFSVGNQREGRLLCHGHYPEILVVDATSLEVLYSLVSKISPDWISSMSIIRSHRTQEDTVVALSVTGILKVWIVTSEISGLQDTEPIFEEESKPIYCQNCQSLSFCAFTQRSLLVVCSKYWRVFDAGDYSLLCSGPSEDGQTWTGGDFVSADKVIIWTENGQSYIYKLPASCLPASDSFRSDVGKAVENLIPPVQHSLLDQKDRELVICPPVTRFFYGCKEYLHKLLIQGDSSGRLSIWNIADIADKQEANEGLKTTTCISLQDAFDKLKPCPAGIIDQLSVIPNSNEPLKVTASVYIPAHGRLVCGREDGSIIIVPATQTAIVQLLQGEHMLRRGWPPHRTLRGHRNKVTCLLYPHQVSARYDQRYLISGGVDFSVIIWDIFSGEMKHIFCVHGGEITQLLVPPENCSARVQHCVCSVASDHSVGLLSLREKKCIMLASRHLFPIQVIKWRPSDDYLVVGCTDGSVCVWQMDTGALDRCAMGITAVEILNACDEAVPAAVDSLSHPAVNLKQAMTRRSLAALKNMAHHKLQTLATNLLASEASDKGNLPKYSHNSLMVQAIKTNLTDPDIHVLFFDVEALIIQLLTEEASRPNTALISPENLQKASGSSDKGGSFLTGKRAAVLFQQVKETIKENIKEHLLDEEEDEEEVMRQRREESDPEYRASKSKPLTLLEYNLTMDTAKLFMSCLHAWGLNEVLDEVCLDRLGMLKPHCTVSFGLLSRGGHMSLMLPGYNQAAGKLLQAKAEAGRKGPATESVGKGTYTVSRAVTTQHLLSIISLANTLMSMTNATFIGDHMKKGPTRPPRPGTPDLSKARDSPPASSNIVQGQIKQAAAPVSARSAADHSGSASASPALRTCFLVNEGWSQLAAMHCVMLPDLLGLGKFRPPLLEMLARRWQDRCLEVREAAQALLLAELRRIEQAGRKETIDTWAPYLPQYMDHVISPGVTAEAMQTMAAAPDASGPEAKVQEEEHDLVDDDITTGCLSSVPQMKKMSTSYEERRKQATAIVLLGVIGAEFGAEIEPPKLLTRPRSSSQIPEGFGLTSGGSNYSLARHTCKALTFLLLQPPSPKLPPHSTIRRTAIDLIGRGFTVWEPYMDVSAVLMGLLELCADAEKQLANITMGLPLSPAADSARSARHALSLIATARPPAFITTIAKEVHRHTALAANTQSQQSIHTTTLARAKGEILRVIEILIEKMPTDVVDLLVEVMDIIMYCLEGSLVKKKGLQECFPAICRFYMVSYYERSHRIAVGARHGSVALYDIRTGKCQTIHGHKGPITAVSFAPDGRYLATYSNTDSHISFWQMNTSLLGSIGMLNSAPQLRCIKTYQVPPVQPASPGSHNALRLARLIWTSNRNVILMAHDGKEHRFMV
notes: Rabconnectin3β / WDR7, endogenous protein of rat brain; also called Rabcn3β; Rbcn3β/WDR7; source: endogenous, rat brain crude synaptosomal membrane fraction, solubilized in 1% Triton X-100
